According to article PMC4488392 (2015):

Molecular target: HD5
Test: SPR

B1: HLA-B27 heavy chain homodimer (B27_(2)), recombinant HLA-B*2705 homodimer complex (complex)
chain 1: GSHSMRYFHTSVSRPGRGEPRFITVGYVDDTLFVRFDSDAASPREEPRAPWIEQEGPEYWDRETQICKAKAQTDREDLRTLLRYYNQSEAGSHTLQNMYGCDVGPDGRLLRGYHQDAYDGKDYIALNEDLSSWTAADTAAQITQRKWEAARVAEQLRAYLEGECVEWLRRYLENGKETLQRADPPKTHVTHHPISDHEATLRCWALGFYPAEITLTWQRDGEDQTQDTELVETRPAGDRTFQKWAAVVVPSGEEQRYTCHVQHEGLPKPLTLRWEPSSQSTVPIV
chain 2: SRYWAIRTR
modifications: biotinylated (site not stated)
In the case of B1, the Kd is reported as 0.32 nM.
